From patent US20150037339A1 (Regeneron, published 2015)

Tests used:
[1] = biological target: T1, Activin A (homodimer of two inhibin βA subunits; R&D Systems, #338-AC) (human, UniProt P08476 311-426); assay: SPR blocking: 5 nM Activin A + 30 nM binder over Follistatin-288 surface
T1 construct: Bought protein; also called inhibin-βA dimer
T1 sequence: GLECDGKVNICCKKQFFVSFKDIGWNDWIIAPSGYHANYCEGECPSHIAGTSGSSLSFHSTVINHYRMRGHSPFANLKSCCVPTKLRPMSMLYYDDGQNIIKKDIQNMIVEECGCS
Procedure, shortened: (§1)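 Signal sampled 150 s after injection onset and corrected against a negative control reference surface.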

[2] = biological target: T1, Activin A (homodimer of two inhibin βA …); assay: SPR blocking: 5 nM Activin A + 1.88 nM binder over hActRIIB-hFc (Control 4) surface
Procedure, shortened: as §1

[3] = biological target: T1, Activin A (homodimer of two inhibin βA …); assay: SPR blocking: 5 nM Activin A + 0.94 nM binder over hActRIIA-hFc surface
Procedure, shortened: as §1

[4] = biological target: T1, Activin A (homodimer of two inhibin βA …); assay: SPR blocking: 5 nM Activin A + 60 nM binder over hActRIIB-hFc (Control 4) surface
Procedure, shortened: as §1

[5] = biological target: T1, Activin A (homodimer of two inhibin βA …); assay: SPR blocking: 5 nM Activin A + 15 nM binder over hActRIIA-hFc surface
Procedure, shortened: as §1

[6] = biological target: T1, Activin A (homodimer of two inhibin βA …); assay: SPR blocking: 5 nM Activin A + 0.00 nM binder over hActRIIB-hFc (Control 4) surface
Procedure, shortened: as §1

[7] = biological target: T1, Activin A (homodimer of two inhibin βA …); assay: SPR blocking: 5 nM Activin A + 60 nM binder over Follistatin-288 surface
Procedure, shortened: as §1

[8] = biological target: T1, Activin A (homodimer of two inhibin βA …); assay: SPR blocking: 5 nM Activin A + 7.50 nM binder over hActRIIB-hFc (Control 4) surface
[9] = biological target: T1, Activin A (homodimer of two inhibin βA …); assay: SPR blocking: 5 nM Activin A + 0.00 nM binder over hActRIIA-hFc surface
Procedure, shortened: as §1

[10] = biological target: T1, Activin A (homodimer of two inhibin βA …); assay: SPR blocking: 5 nM Activin A + 3.75 nM binder over hActRIIA-hFc surface
Procedure, shortened: as §1

[11] = biological target: T1, Activin A (homodimer of two inhibin βA …); assay: SPR blocking: 5 nM Activin A + 15 nM binder over Follistatin-288 surface
Procedure, shortened: as §1

[12] = biological target: T1, Activin A (homodimer of two inhibin βA …); assay: SPR blocking: 5 nM Activin A + 3.75 nM binder over hActRIIB-hFc (Control 4) surface
Procedure, shortened: as §1

[13] = biological target: T1, Activin A (homodimer of two inhibin βA …); assay: SPR blocking: 5 nM Activin A + 60 nM binder over hActRIIA-hFc surface
Procedure, shortened: as §1

[14] = biological target: T1, Activin A (homodimer of two inhibin βA …); assay: SPR blocking: 5 nM Activin A + 0.94 nM binder over hActRIIB-hFc (Control 4) surface
[15] = biological target: T1, Activin A (homodimer of two inhibin βA …); assay: SPR blocking: 5 nM Activin A + 3.75 nM binder over Follistatin-288 surface
Procedure, shortened: as §1

[16] = biological target: T1, Activin A (homodimer of two inhibin βA …); assay: SPR blocking: 5 nM Activin A + 0 nM binder over Follistatin-288 surface
Procedure, shortened: as §1

[17] = biological target: T1, Activin A (homodimer of two inhibin βA …); assay: SPR blocking: 5 nM Activin A + 7.50 nM binder over hActRIIA-hFc surface
Procedure, shortened: as §1

BMP10 = biological target: T2, BMP10 (human, UniProt O95393 317-424); assay: cell-based or functional assay
T2 sequence (looked up): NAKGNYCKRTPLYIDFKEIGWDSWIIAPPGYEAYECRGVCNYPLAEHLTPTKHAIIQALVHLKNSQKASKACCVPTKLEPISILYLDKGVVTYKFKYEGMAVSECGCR

[18] = biological target: T1, Activin A (homodimer of two inhibin βA …); assay: SPR blocking: 5 nM Activin A + 1.88 nM binder over hActRIIA-hFc surface
Procedure, shortened: as §1

[19] = biological target: T1, Activin A (homodimer of two inhibin βA …); assay: SPR blocking: 5 nM Activin A + 30 nM binder over hActRIIA-hFc surface
Procedure, shortened: as §1

[20] = biological target: T1, Activin A (homodimer of two inhibin βA …); assay: SPR blocking: 5 nM Activin A + 1.88 nM binder over Follistatin-288 surface
Procedure, shortened: as §1

[21] = biological target: T1, Activin A (homodimer of two inhibin βA …); assay: SPR blocking: 5 nM Activin A + 30 nM binder over hActRIIB-hFc (Control 4) surface
Procedure, shortened: as §1

[22] = biological target: T1, Activin A (homodimer of two inhibin βA …); assay: SPR blocking: 5 nM Activin A + 15 nM binder over hActRIIB-hFc (Control 4) surface
[23] = biological target: T1, Activin A (homodimer of two inhibin βA …); assay: SPR blocking: 5 nM Activin A + 0.94 nM binder over Follistatin-288 surface
Procedure, shortened: as §1

[24] = biological target: T1, Activin A (homodimer of two inhibin βA …); assay: SPR blocking: 5 nM Activin A + 7.5 nM binder over Follistatin-288 surface
Procedure, shortened: as §1

BMP9 = biological target: T3, BMP9 (human, UniProt Q9UK05 320-429); assay: cell-based or functional assay
T3 sequence (looked up): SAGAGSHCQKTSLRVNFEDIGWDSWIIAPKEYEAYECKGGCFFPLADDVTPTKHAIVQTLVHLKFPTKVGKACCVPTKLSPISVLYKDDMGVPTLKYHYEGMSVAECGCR

B1: H4H10436P2 (antibody, human IgG4, V domains shown)
VH: QVQLVESGGGVVQPGRSLRLTCVASGFTVSSYGMHWVRQAPGKGLEWVAVMFYDESKKYYADSVKGRFTISRDNSKNTLYLQMNSLRVEDTAVYYCARDEQLDFEYWGQGTLVTVSS
VL: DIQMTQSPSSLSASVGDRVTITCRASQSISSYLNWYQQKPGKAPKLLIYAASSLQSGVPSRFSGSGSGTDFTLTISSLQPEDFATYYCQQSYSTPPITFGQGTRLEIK
notes: H4H prefix means human IgG4 Fc
[1]
  % bound RU w/no inhibitor: 2%
[2]
  % bound RU w/no inhibitor: 60%
[3]
  % bound RU w/no inhibitor: 75%
[4]
  % bound RU w/no inhibitor: 4%
[5]
  % bound RU w/no inhibitor: 2%
[6]
  % bound RU w/no inhibitor: 100%
[7]
  % bound RU w/no inhibitor: 2%
[8]
  % bound RU w/no inhibitor: 3%
[9]
  % bound RU w/no inhibitor: 100%
[10]
  % bound RU w/no inhibitor: 16%
[11]
  % bound RU w/no inhibitor: 1%
[12]
  % bound RU w/no inhibitor: 19%
[13]
  % bound RU w/no inhibitor: 2%
[14]
  % bound RU w/no inhibitor: 80%
[15]
  % bound RU w/no inhibitor: 16%
[16]
  % bound RU w/no inhibitor: 100%
[17]
  % bound RU w/no inhibitor: 2%
BMP10
  IC50 [M]; inhibition of 4 nM BMP10 in W-20-17/BRE-luc cells: > 1e-07 M
[18]
  % bound RU w/no inhibitor: 55%
[19]
  % bound RU w/no inhibitor: 2%
[20]
  % bound RU w/no inhibitor: 61%
[21]
  % bound RU w/no inhibitor: 3%
[22]
  % bound RU w/no inhibitor: 2%
[23]
  % bound RU w/no inhibitor: 78%
[24]
  % bound RU w/no inhibitor: 1%

B2: H4H10429P (antibody, human IgG4, V domains shown)
VH: QVQLVESGGGVVQPGRSLRLSCVASGFTVSSYGIHWVRQAPGKGLEWVSVIWYDGRNKDYADSVKGRFTISRDNSKNTVYLEMKGLRAEDTALYYCARDKTGDFDSWGQGTLVTVSS
VL: DIQMTQSPSSLSASVGDRVTITCRASQNINSFLSWYQQKPGKAPKFLIYDASSIQSGAPSRFSGSGSGTDFTLTISSLQPEDFATYYCQQSYSSPFTFGQGTKLEIK
notes: as for B1
[1]
  % bound RU w/no inhibitor: 2%
[2]
  % bound RU w/no inhibitor: 67%
[3]
  % bound RU w/no inhibitor: 87%
[4]
  % bound RU w/no inhibitor: 3%
[5]
  % bound RU w/no inhibitor: 1%
[6]
  % bound RU w/no inhibitor: 100%
[7]
  % bound RU w/no inhibitor: 3%
[8]
  % bound RU w/no inhibitor: 2%
[9]
  % bound RU w/no inhibitor: 100%
[10]
  % bound RU w/no inhibitor: 19%
[11]
  % bound RU w/no inhibitor: 1%
[12]
  % bound RU w/no inhibitor: 19%
[13]
  % bound RU w/no inhibitor: 1%
[14]
  % bound RU w/no inhibitor: 87%
[15]
  % bound RU w/no inhibitor: 20%
[16]
  % bound RU w/no inhibitor: 100%
[17]
  % bound RU w/no inhibitor: 1%
BMP9
  IC50 [M]; inhibition of 800 pM BMP9 in W-20-17/BRE-luc cells: 8.1e-09 M
BMP10
  IC50 [M]; inhibition of 4 nM BMP10 in W-20-17/BRE-luc cells: 3.5e-09 M
[18]
  % bound RU w/no inhibitor: 66%
[19]
  % bound RU w/no inhibitor: 1%
[20]
  % bound RU w/no inhibitor: 80%
[21]
  % bound RU w/no inhibitor: 2%
[22]
  % bound RU w/no inhibitor: 2%
[23]
  % bound RU w/no inhibitor: 97%
[24]
  % bound RU w/no inhibitor: 1%
